Experimental data reported in paper PMC6348830, “In Vivo Biokinetics of ^177Lu-OPS201 in Mice and Pigs as a Model for Predicting Human Dosimetry” (Contrast Media & Molecular Imaging, 2019).
Positions of bridges follow the written chain, without caps; N, C: chain ends. Non-standard residues stand in square brackets, D forms with d. Residues, ends and D or L forms follow the SMILES beside them. *: point of attachment. DOTA = O=C(O)CN1CCN(CC(=O)O)CCN(CC(=O)*)CCN(CC(=O)O)CC1; dPhe(4-NHCONH2) = NC(=O)Nc1ccc(C[C@@H](N)C(=O)O)cc1; Dihydroorotyl(S) = O=C1C[C@@H](C(=O)*)NC(=O)N1; Phe(4-Cl) = N[C@@H](Cc1ccc(Cl)cc1)C(=O)O; Phe(4-NH2) = Nc1ccc(C[C@H](N)C(=O)O)cc1

Columns and labels:
[1] = human, in vivo; cited from earlier work
Procedure: The fast blood clearance of the OPS201 in the first phase (<56 h) for each species was in agreement with studies of the agonist. […] For humans, most likely because of the short observation period, the value was lower (0.5 h). For the late phase in pigs, our result (58 h) is also close to the results obtained in the human study with the agonist (43 h). Part of an ongoing phase 1 study with ^177Lu-OPS201 in patients with SSTR-posi ...

[2] = clinical; set-up: species or system patients (humans); conditions: both sexes, human, in vivo, total radioactivity
Procedure: (§1) For analyzing the biokinetics of ^177Lu-labeled peptides in preclinical and clinical studies, the data of ^177Lu-OPS201 athymic nude Foxn1nu mice (28 females, weight: 26 ± 1 g, age: 8–9 weeks), Danish Landrace pigs (3 females-1 male, weight: 28 ± 2 kg, age: 3 months), and patients (3 females-1 male, weight: 61 ± 17 kg, age: 44–77 years) with administered activities of 0.19–0.27 MBq (mice, 0.017 µg of peptide), 97–113 MBq (pigs, 9 µg of peptide), and 850–1086 MBq (patients, 55–106 µg of peptide) were included. For pigs and patients, kidney protection was applied.
After administration of ^177Lu-OPS201, blood samples were taken up to 72 h for mice, up to 300 h for pigs, and up to 23 h for patients in order to measure the blood radioactivity contents by using the same well-type gamma counter (Packard Instruments). […] In order to convert the raw count values to blood uptake values per mL human blood in each time point, human blood data were quantified (in Bq/mL) retrospectively by using the same calibration factor as for the mouse study. […]
To quantify the amount of activity, the average percentage values corresponding to the injected radioactivity (A%) per organ as a function of time were calculated for the liver, right kidney, left kidney, and blood for each species via a manual VOI analysis (for pigs and patients) and via gamma counter (for mice). […]

[3] = in vivo; set-up: species or system Danish Landrace pigs; conditions: both sexes, Danish Landrace, pig, total radioactivity
Procedure: as §1
After administration of ^177Lu-OPS201, blood samples were taken up to 72 h for mice, up to 300 h for pigs, and up to 23 h for patients in order to measure the blood radioactivity contents by using the same well-type gamma counter (Packard Instruments). The human blood data were, originally, provided as relative values, normalized to the first blood sample immediately taken after injection. In order to convert the raw count values to blood uptake values per mL human blood in each time point, human blood data were quantified (in Bq/mL) retrospectively by using the same calibration factor as for the mouse study.
After injection, multiple whole body (WB) planar images and SPECT/CT scans were acquired at 0.5, 2, 3, 4, 50, 100, 150, and 250 h to quantify the uptake in the kidneys and liver. […]

SMILES | half-life of late phase, blood [1] [h] | mean effective half-life of first phase, blood [1] [h] | tissue uptake dose at 10 min [2] [%ID] | tissue uptake dose at 10 min [3] [%ID]
C[C@@H](O)[C@H](NC(=O)[C@@H]1CSSC[C@H](NC(=O)[C@@H](Cc2ccccc2)NC(=O)CN2CCN(CC(=O)[O-])CCN(CC(=O)[O-])CCN(CC(=O)[O-])CC2)C(=O)N[C@@H](Cc2ccc(O)cc2)C(=O)N[C@H](Cc2c[nH]c3ccccc23)C(=O)N[C@@H](CCCCN)C(=O)N[C@@H]([C@@H](C)O)C(=O)N1)C(=O)O.[177Lu+3] [177Lu-octreotate, DOTA-[Tyr3]octreotate] | 43 | 1.6 | – | –
C[C@@H](O)[C@@H]1NC(=O)[C@H](CCCCN)NC(=O)[C@@H](Cc2ccc(NC(N)=O)cc2)NC(=O)[C@H](Cc2ccc(NC(=O)[C@@H]3CC(=O)NC(=O)N3)cc2)NC(=O)[C@H](NC(=O)[C@H](Cc2ccc(Cl)cc2)NC(=O)CN2CCN(CC(=O)O)CCN(CC(=O)O)CCN(CC(=O)O)CC2)CSSC[C@@H](C(=O)N[C@H](Cc2ccc(O)cc2)C(N)=O)NC1=O [177Lu-OPS201, metal not drawn] ({DOTA}-[Phe(4-Cl)][dC][Phe(4-NH2)](Dihydroorotyl(S))[dPhe(4-NHCONH2)]KTC[dY]-NH2; disulfide 2-7) | – | – | < 5 | < 5
